Experimental data from patent publication US20210139581A1 (Alector, published 2021).
Read-outs that look alike come from different tables or passages of the source.

Assays:
[1] = biological target: T1, human CD33 on primary human monocyte-derived dendritic cells (human, UniProt P20138 18-364); assay: cell-based or functional assay
[2] = biological target: T2, human CD33 (human, UniProt P20138 18-259, limits assumed); assay: SPR (BIAcore), Fab over CD33 on C1 chip
T2 construct: Human CD33 immobilized on the BLI sensor tip or the BIAcore C1 chip; also called Siglec-3
T2 sequence (P20138 18-259 limits assumed): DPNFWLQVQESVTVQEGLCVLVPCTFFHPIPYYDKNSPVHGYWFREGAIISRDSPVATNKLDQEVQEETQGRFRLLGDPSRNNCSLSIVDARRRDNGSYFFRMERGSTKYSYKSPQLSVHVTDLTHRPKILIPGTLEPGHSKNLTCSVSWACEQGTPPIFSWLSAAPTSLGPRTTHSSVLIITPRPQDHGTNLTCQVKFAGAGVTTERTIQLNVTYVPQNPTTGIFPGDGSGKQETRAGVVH
Protocol: The affinity parameters for 10 of the 88 humanized antibodies (AB-H1, AB-H3, AB-H6, AB-H11, AB-H22, AB-H24, AB-H26, AB-H63, AB-H64, and AB-H71) were measured in a separate experiment by a more sensitive technique, surface plasmon resonance (BIAcore), and compared to Chimeric Ab and Chimeric Ab #2. BIAcore measurements were performed as follows: human CD33 was immobilized on the surface of a C1 chip, and Fabs were injected for 300 s to monitor association, followed by a 900 s flow in running buffer to monitor dissociation. The Fabs were measured at 5 concentrations: a high concentration of 27 nM and 3-fold serial dilutions.

[3] = biological target: T1, human CD33 on primary human …; assay: cell-based or functional assay; remark: listed apart in the source
[4] = biological target: T2, human CD33; assay: BLI (ForteBio), Fab 100 nM on immobilized CD33
Protocol: (§1) The affinities (KD) of the humanized antibodies for human CD33 were measured for each antibody by BioLayer Interferometry in a ForteBio assay according to standard techniques (Estep et al. (2013) MAbs 5(2): 270-8). […] The assay was carried out at room temperature.
The affinities of AB-H14 and its affinity-matured variants (Table 15) and AB-H63 and its affinity-matured variants (Table 16), for human CD33 were measured by Fortebio assay according to the method described in Example 1 above.

[5] = biological target: T1, human CD33 on primary human …; assay: cell-based or functional assay; remark: listed apart in the source
[6] = biological target: T1, human CD33 on primary human …; assay: cell-based or functional assay; remark: listed apart in the source
[7] = biological target: T2, human CD33; assay: BLI (ForteBio), Fab 100 nM on immobilized CD33; remark: listed apart in the source
Protocol: as §1
The affinity parameters of two of the antibodies, 64.1.2 and 64.1.8, were measured in a separate experiment by BIAcore, where they were directly compared to the parental antibody, AB-64.1, the parental humanized antibody, AB-H64, and the Chimeric Ab.

T1 sequence (P20138 18-364): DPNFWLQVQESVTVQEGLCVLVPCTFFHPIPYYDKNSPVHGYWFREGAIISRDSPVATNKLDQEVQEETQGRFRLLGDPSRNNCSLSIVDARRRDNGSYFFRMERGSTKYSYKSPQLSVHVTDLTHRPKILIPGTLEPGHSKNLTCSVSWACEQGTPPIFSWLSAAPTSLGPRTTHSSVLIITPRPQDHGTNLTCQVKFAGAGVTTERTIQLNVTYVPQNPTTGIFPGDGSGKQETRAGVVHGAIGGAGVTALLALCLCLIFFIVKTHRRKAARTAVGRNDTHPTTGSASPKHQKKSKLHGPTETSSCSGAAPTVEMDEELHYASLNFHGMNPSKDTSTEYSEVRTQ

| Binder | Fold affinity improvement over parental Ab (AB-H14) [4] | Kd [4] | koff [4] | kon [4] | Maximal Downregulation (% CD33 remaining) [5] | Receptor downregulation (EC50) [5] | Receptor downregulation (% remaining at 0.16 µg/mL antibody) [6] | Kd [7] | other results |
| --- | --- | --- | --- | --- | --- | --- | --- | --- | --- |
| Chimeric Ab #2 (antibody, V domains shown, Chimeric Ab with a VH-FR3 mutation that removes the predicted N-glycosylation site) VH: EVQLQQSGPELVKPGASVKISCKASGYTFTDYNLHWVKLSHGKSLEWIGFIYPSNGITGYNQKFKNKATLTVDTSSSTAYMELRSLTSEDSAVYYCARSTVDYFDYWGQGTTLTVSS VL: DIVLTQSPASLAVSLGQRATMSCRASQSVSTSTYSYMHWYQQKPGQPPKLLIKYASNLESGVPARFSGSGSGTDFTLNIHPVEEEDTATYYCQHSWEIPLTFGAGTKLELK |  |  |  |  |  |  |  |  | Maximal Downregulation (% CD33 remaining) [1]: 23.2%; Receptor downregulation (EC50) [1]: 0.119 nM; Fold Change to Chimeric Ab [2]: 0.56 fold; Kd [2]: 2.89 nM; koff [2]: 0.00286 s⁻¹; kon [2]: 991000 M⁻¹ s⁻¹; Maximal Downregulation (% CD33 remaining) [3]: 23.2%; Receptor downregulation (EC50) [3]: 0.119 nM |
| AB-14.4 (antibody, V domains shown) VH: QVQLVQSGAEVKKPGASVKVSCKASGYTFTDYNYHWVRQAPGQGLEWIGFIYPSNGITGYAQKFQGRVTMTVDTSTSTVYMELSSLRSEDTAVYYCADSTVDYFDYWGQGTLVTVSS VL: DIQMTQSPSSLSASVGDRVTITCRASQDVSTSTYSYMHWYQQKPGKAPKLLIKYVSNLESGVPSRFSGSGSGTDFTLTISSLQPEDFATYYCQHSWEIPLTFGQGTKLEIK | 13 fold | 0.224 nM | 0.0002 s⁻¹ | 895000 M⁻¹ s⁻¹ | 27.6% | 0.0582 nM |  |  |  |
| AB-64.1.4 (antibody, V domains shown, Variant of AB-64.1) VH: QVQLVQSGAEVKKPGASVKISCKASGYTFTDYNLHWVRQAPGQGLEWIGFIYPSNGITGYAQKFQGRATLTVDTSTSTAYMELSSLRSEDTAVYYCARSDVDYFDYWGQGTLLTVSS VL: DIVLTQSPDSLAVSLGERATINCRASQSVSTSTYSYMHWYQQKPGQPPKLLIKYASNLESGVPDRFSGSGSGTDFTLTISSLQAEDVAVYYCQHSWEIPLTFGQGTKLEIK |  |  |  |  |  |  | 38% | 0.639 nM |  |
| AB-14.8 (antibody, V domains shown) VH: QVQLVQSGAEVKKPGASVKVSCKASGYTFTDYNYHWVRQAPGQGLEWIGFIYPSNGITGYAQKFQGRVTMTVDTSTSTVYMELSSLRSEDTAVYYCARSDVDYFDYWGQGTLVTVSS VL: DIQMTQSPSSLPASVGDRVTITCRASQSVGTSTYSYMHWYQQKPGKAPKLLIKYASNLGSGVPSRFSGSGSGTDFTLTISSLQPEDFATYYCQHSWEIPLTFGQGTKLEIK | 13.6 fold | 0.214 nM | 0.0002 s⁻¹ | 935000 M⁻¹ s⁻¹ | 21.2% | 0.0234 nM |  |  |  |
| AB-64.1.6 (antibody, V domains shown, Variant of AB-64.1) VH: QVQLVQSGAEVKKPGASVKISCKASGYTFTDYNLHWVRQAPGQGLEWIGFIYPSNGITGYAQKFQGRATLTVDNSASTAYMELSSLRSEDTAVYYCARSDVDYFDYWGQGTLLTVSS VL: DIVLTQSPDSLAVSLGERATINCRASQSVSTSTYSYMHWYQQKPGQPPKLLIKYASNLESGVPDRFSGSGSGTDFTLTISSLQAEDVAVYYCQHSWEIPLTFGQGTKLEIK |  |  |  |  |  |  | 37% | 0.836 nM |  |
| AB-14.10 (antibody, V domains shown) VH: QVQLVQSGAEVKKPGASVKVSCKASGYTFTDYNYHWVRQAPGQGLEWIGFIYPSNGITGYAQKFQGRVTMTVDTSTSTVYMELSSLRSEDTAVYYCARSDVDYFDYWGQGTLVTVSS VL: DIQMTQSPSSLSASVGDRVTITCRASQSVSASTYSYMHWYQQKPGKAPKLLIKYASNLESGVPSRFSGSGSGTDFTLTISSLQPEDLATYYCQHSWEIPLTFGQGTKLEIK | 13.2 fold | 0.221 nM | 0.0002 s⁻¹ | 906000 M⁻¹ s⁻¹ | 20.9% | 0.0494 nM |  |  |  |
| AB-14.5 (antibody, V domains shown) VH: QVQLVQSGAEVKKPGASVKVSCKASGYTFTDYNYHWVRQAPGQGLEWIGFIYPSNGITGYAQKFQGRVTMTVDTSTSTVYMELSSLRSEDTAVYYCARSDVDYFDYWGQGTLVTVSS VL: DIQMTQSPSSLSASVGDRVTITCRASQDVSTSTYSYMHWYQRKPGKAPKLLIKYASNLESGVPSRFSGSGSGTDFTLTISSLQPEDFATYYCQHSWEIPLTFGQGTKLEIK | 13.7 fold | 0.212 nM | 0.0002 s⁻¹ | 945000 M⁻¹ s⁻¹ | 26.4% | 0.0342 nM |  |  |  |
| AB-14.11 (antibody, V domains shown) VH: QVQLVQSGAEVKKPGASVKVSCKASGYTFTDYNYHWVRQAPGQGLEWIGFIYPSNGITGYAQKFQGRVTMTVDTSTSTVYMELSSLRSEDTAVYYCARSSVDYFDYWGQGTLVTVSS VL: DIQMTQSPSSLSASVGDRVTITCRASQDVSTSTYSYMHWYQQKPGKAPKLLIKYVSNLESGVPSRFSGSGSGTDFTLTISSLQPEDFATYYCQHSWEIPLTFGQGTKLEIK | 14.1 fold | 0.205 nM | 0.0002 s⁻¹ | 974000 M⁻¹ s⁻¹ | 27.5% | 0.047 nM |  |  |  |

More lines, main results first:

| Fold affinity improvement over parental Ab (AB-H14) [4] | Kd [4] | koff [4] | kon [4] | Maximal Downregulation (% CD33 remaining) [5] | Receptor downregulation (EC50) [5] | Receptor downregulation (% remaining at 0.16 µg/mL antibody) [6] | Kd [7] | Binder | other results |
| --- | --- | --- | --- | --- | --- | --- | --- | --- | --- |
| 9.83 fold | 0.295 nM | 0.000264 s⁻¹ | 894000 M⁻¹ s⁻¹ | 24% | 0.0324 nM |  |  | AB-14.6 (antibody, V domains shown) VH: QVQLVQSGAEVKKPGASVKVSCKASGYTFTDYNYHWVRQAPGQGLEWIGFIYPSNGITGYAQKFQGRVTMTVDTSTSTVYMELSSLRSEDTAVYYCARSDVDYFDYWGQGTLVTVSS VL: DIQMTQSPSSLSASVGDRVTITCRASQSVGTSTYSYMHWYQQKPGKAPKLLIKYASALESGVPSRFSGSGSGTDFTLTISSLQPEDFATYYCQHSWEIPLTFGQGTKLEIK |  |
|  |  |  |  |  |  | 38.5% | 0.647 nM | AB-64.1.3 (antibody, V domains shown, Variant of AB-64.1) VH: QVQLVQSGAEVKKPGASVKISCKASGYTFTDYNLHWVRQAPGQGLEWIGFIYPSNVITGYAQKFQGRATLTVDNSTSTAYMELSSLRSEDTAVYYCARSDVDYFDYWGQGTLLTVSS VL: DIVLTQSPDSLAVSLGERATINCRASQSVSTSTYSYMHWYQQKPGQPPKLLIKYASNLESGVPDRFSGSGSGTDFTLTISSLQAEDVAVYYCQHSWEIPLTFGQGTKLEIK |  |
|  |  |  |  |  |  | 37% | 0.429 nM | AB-64.1.1 (antibody, V domains shown, Variant of AB-64.1) VH: QVQLVQSGAEVKKPGASVKISCKASGYTFTDYNLHWVRQAPGQGLEWIGFIYPSNQITGYAQKFQGRATLTVDNSTSTAYMELSSLRSEDTAVYYCARSDVDYFDYWGQGTLLTVSS VL: DIVLTQSPDSLAVSLGERATINCRASQSVSTSTYSYMHWYQQKPGQPPKLLIKYASNLESGVPDRFSGSGSGTDFTLTISSLQAEDVAVYYCQHSWEIPLTFGQGTKLEIK |  |
| 13.4 fold | 0.217 nM | 0.0002 s⁻¹ | 921000 M⁻¹ s⁻¹ | 26.1% | 0.0399 nM |  |  | AB-14.9 (antibody, V domains shown) VH: QVQLVQSGAEVKKPGASVKVSCKASGYTFTDYNYHWVRQAPGQGLEWIGFIYPSNGITGYAQKFQGRVTMTVDTSTSTVYMELSSLRSEDTAVYYCARSDVDYFDYWGQGTLVTVSS VL: GIQMTQSPSSLSASVGDRVTITCRASQSVGTSTYSYMHWYQQKPGKAPKLLIKYAVNLESGVPSRFSGSGSGTDFTLTISSLQPEDFATYYCQHSWEIPLTFGQGTKLEIK |  |
|  |  |  |  |  |  | 37.3% | 0.697 nM | AB-64.1.5 (antibody, V domains shown, Variant of AB-64.1) VH: QVQLVQSGAEVKKPGASVKISCKASGYTFTDYNLHWVRQAPGQGLEWIGFIYPSNGITGYAQKFQGRATLTVDQSTSTAYMELSSLRSEDTAVYYCARSDVDYFDYWGQGTLLTVSS VL: DIVLTQSPDSLAVSLGERATINCRASQSVSTSTYSYMHWYQQKPGQPPKLLIKYASNLESGVPDRFSGSGSGTDFTLTISSLQAEDVAVYYCQHSWEIPLTFGQGTKLEIK |  |
| 11.8 fold | 0.246 nM | 0.0002 s⁻¹ | 813000 M⁻¹ s⁻¹ | 23.4% | 0.0351 nM |  |  | AB-14.7 (antibody, V domains shown) VH: QVQLVQSGAEVKKPGASVKVSCKASGYTFTDYNYHWVRQAPGQGLEWIGFIYPSNGITGYAQKFQGRVTMTVDTSTSTVYMELSSLRSEDTAVYYCARSDVDYFDYWGQGTLVTVSS VL: DIQMTQSPSSLSASVGDRVTITCRASQSVGTSTYSYMHWYQQKPGKAPKLLIKYASNLESGVPSRFSGSGSGTDFTLTISSLQPEDFATYYCQHSWEIPLTFGQGTKLEIK |  |
